The series deals with the molecule itself.

B1: Herpes simplex virus type 1 SSB/recombination protein ICP8 (natural protein)
chain: METKPKTATTIKVPPGPLGYVYARACPSEGIELLALLSARSGDSDVAVAPLVVGLTVESGFEANVAVVVGSRTTGLGGTAVSLKLTPSHYSSSVYVFHGGRHLDPSTQAPNLTRLCERARRHFGFSDYTPRPGDLKHETTGEALCERLGLDPDRALLYLVVTEGFKEAVCINNTFLHLGGSDKVTIGGAEVHRIPVYPLQLFMPDFSRVIAEPFNANHRSIGEKFTYPLPFFNRPLNRLLFEAVVGPAAVALRCRNVDAVARAAAHLAFDENHEGAALPADITFTAFEASQGKTPRGGRDGGGKGAAGGFEQRLASVMAGDAALALESIVSMAVFDEPPTDISAWPLFEGQDTAAARANAVGAYLARAAGLVGAMVFSTNSALHLTEVDDAGPADPKDHSKPSFYRFFLVPGTHVAANPQVDREGHVVPGFEGRPTAPLVGGTQEFAGEHLAMLCGFSPALLAKMLFYLERCDGAVIVGRQEMDVFRYVADSNQTDVPCNLCTFDTRHACVHTTLMRLRARHPKFASAARGAIGVFGTMNSMYSDCDVLGNYAAFSALKRADGSETARTIMQETYRAATERVMAELETLQYVDQAVPTAMGRLETIITNREALHTVVNNVRQVVDREVEQLMRNLVEGRNFKFRDGLGEANHAMSLTLDPYACGPCPLLQLLGRRSNLAVYQDLALSQCHGVFAGQSVEGRNFRNQFQPVLRRRVMDMFNNGFLSAKTLTVALSEGAAICAPSLTAGQTAPAESSFEGDVARVTLGFPKELRVKSRVLFAGASANASEAAKARVASLQSAYQKPDKRVDILLGPLGFLLKQFHAAIFPNGKPPGSNQPNPQWFWTALQRNQLPARLLSREDIETIAFIKKFSLDYGAINFINLAPNNVSELAMYYMANQILRYCDHSTYFINTLTAIIAGSRRPPSVQAAAAWSAQGGAGLEAGARALMDAVDAHPGAWTSMFASCNLLRPVMAARPMVVLGLSISKYYGMAGNDRVFQAGNWASLMGGKNACPLLIFDRTRKFVLACPRAGFVCAASSLGGGAHESSLCEQLRGIISEGGAAVASSVFVATVKSLGPRTQQLQIEDWLALLEDEYLSEEMMELTARALERGNGEWSTDAALEVAHEAEALVSQLGNAGEVFNFGDFGCEDDNATPFGGPGAPGPAFAGRKRAFHGDDPFGEGPPDKKGDLTLDML
Turning to B1, the binding result is “binds”.

Source of the values: PMC2757162 (Journal of molecular biology, 2008).
